T1: human DLL1 (human, UniProt O00548 18-545, limits assumed)
T1 construct: also called hDLL1
T1 sequence (looked up): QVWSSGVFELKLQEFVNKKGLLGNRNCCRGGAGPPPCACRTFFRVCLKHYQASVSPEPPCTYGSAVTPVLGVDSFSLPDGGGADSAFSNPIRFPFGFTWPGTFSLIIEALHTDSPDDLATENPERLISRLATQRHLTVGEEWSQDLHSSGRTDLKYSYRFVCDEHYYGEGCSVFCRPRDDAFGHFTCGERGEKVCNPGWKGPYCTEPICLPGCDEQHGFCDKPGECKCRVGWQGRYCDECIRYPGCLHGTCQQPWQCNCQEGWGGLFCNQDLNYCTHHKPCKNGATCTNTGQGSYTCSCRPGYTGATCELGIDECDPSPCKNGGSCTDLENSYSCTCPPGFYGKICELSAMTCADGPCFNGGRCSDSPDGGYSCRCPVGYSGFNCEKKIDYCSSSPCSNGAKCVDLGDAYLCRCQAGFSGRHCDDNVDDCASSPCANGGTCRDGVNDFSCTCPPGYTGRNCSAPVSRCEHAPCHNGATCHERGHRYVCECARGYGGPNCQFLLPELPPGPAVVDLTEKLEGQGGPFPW


How the values were obtained:
recombinant mouse DLL4 = target: T2, recombinant mouse DLL4 (mouse, UniProt Q9JI71 27-532); assay: binding ELISA on coated recombinant mouse DLL4, OD 405 nm
T2 construct: extracellular domain; also called rmDLL4; mDLL4
Experimental: (§1) In order to determine cross-reactivity to mouse DII4 a binding ELISA is performed. […] Wells are blocked with a casein solution (1% in PBS). VHHs are applied as dilution series and binding is detected using a mouse anti-myc (Roche) and an anti-mouse-AP conjugate (Sigma, St Louis, Mo., USA) (FIG. 7 A-H). As reference, binding to human DII4 is measured.

human Jagged-1 = target: T3, human Jagged-1 (human, UniProt P78504 34-1067, limits assumed); assay: binding ELISA on coated recombinant human Jagged-1, OD 405 nm
T3 construct: also called hJagged-1; hJAG1
Experimental: (§2) Absence of binding to homologous ligands human DLL1 and human Jagged-1 is assessed via solid phase binding assay (ELISA). In brief, human DLL1 (Alexis, San Diego, Calif., USA) and human Jagged-1 (Alexis, San Diego, Calif., USA) are coated overnight at 4° C. at 1 μg/mL in a 96-well MaxiSorp plate (Nunc, Wiesbaden, Germany). Wells are blocked with a casein solution (1% in PBS). VHHs are applied as dilution series and binding is detected using a mouse anti-myc (Roche) and an anti-mouse-AP conjugate (Sigma, St. Louis, Mo., USA).

recombinant human DLL4 [1] = target: T4, recombinant human DLL4 (human, UniProt Q9NR61 25-522); assay: binding ELISA, coated rhDLL4
T4 construct: also called rhDLL4; hDLL4
Experimental: as §1

recombinant human DLL4 [2] = target: T4, recombinant human DLL4; assay: competition AlphaScreen, biot-hDLL4/hNotch1-Fc
Experimental: In brief, 1 nM biotinylated human DII4 is captured on streptavidin-coated donor beads (20 μg/mL), while 0.4 nM of the receptor human Notch1 (as a Fc fusion protein) is captured on anti-human Fc VHH-coated acceptor beads (20 μg/mL). Both loaded beads are incubated together with a dilution range of the competing VHH (FIG. 4 A-E).

recombinant human DLL4 [3] = target: T4, recombinant human DLL4; assay: hDLL4 ELISA screen, periplasmic extract
human DLL1 = target: T1, human DLL1; assay: binding ELISA on coated recombinant human DLL1, OD 405 nm
Experimental: as §2

[4] = target: T5, human DLL4 overexpressed on cells (human, UniProt Q9NR61 27-685); assay: competitive FMAT, hNotch1-Fc on CHO-hDLL4
T5 construct: full length human DLL4 on CHO or HEK293 cells; also called CHO-hDLL4; CHO-hDII4

[5] = target: T6, recombinant human VEGF165 (human, UniProt P15692-4 27-191, biotinylated in the competition assays); assay: AlphaScreen, hVEGF165/hVEGFR2-Fc competition, -HSA
T6 construct: Bought protein; also called hVEGF165; rhVEGF165

[6] = target: T7, human DLL4, full length, overexpressed on cells (human, UniProt Q9NR61 27-685); assay: FMAT, hNotch1-Fc on CHO-hDLL4, -HSA
T7 construct: CHO cells in FMAT, HEK293 cells in the reporter assay; also called hDLL4; CHO-hDLL4

[7] = target: T6, recombinant human VEGF165; assay: AlphaScreen, hVEGF165/hVEGFR1-Fc competition, -HSA
[8] = target: T8, mouse DLL4, full length, overexpressed on CHO cells (mouse, UniProt Q9JI71 27-686); assay: FMAT, hNotch1-Fc on CHO-mDLL4, -HSA
T8 construct: whole, on cells; also called mDLL4; CHO-mDLL4

recombinant human DLL4 [9] = target: T4, recombinant human DLL4; assay: competition ELISA, biot-hDLL4 to coated hNotch1-Fc
From the text: Residual binding of biotinylated human DII4 is detected using horseradish peroxidase (HRP) conjugated extravidin (Sigma, St. Louis, Mo., USA) (FIG. 3 A-C). Human DII4 is biotinylated as described above.

T2 sequence (Q9JI71 27-532): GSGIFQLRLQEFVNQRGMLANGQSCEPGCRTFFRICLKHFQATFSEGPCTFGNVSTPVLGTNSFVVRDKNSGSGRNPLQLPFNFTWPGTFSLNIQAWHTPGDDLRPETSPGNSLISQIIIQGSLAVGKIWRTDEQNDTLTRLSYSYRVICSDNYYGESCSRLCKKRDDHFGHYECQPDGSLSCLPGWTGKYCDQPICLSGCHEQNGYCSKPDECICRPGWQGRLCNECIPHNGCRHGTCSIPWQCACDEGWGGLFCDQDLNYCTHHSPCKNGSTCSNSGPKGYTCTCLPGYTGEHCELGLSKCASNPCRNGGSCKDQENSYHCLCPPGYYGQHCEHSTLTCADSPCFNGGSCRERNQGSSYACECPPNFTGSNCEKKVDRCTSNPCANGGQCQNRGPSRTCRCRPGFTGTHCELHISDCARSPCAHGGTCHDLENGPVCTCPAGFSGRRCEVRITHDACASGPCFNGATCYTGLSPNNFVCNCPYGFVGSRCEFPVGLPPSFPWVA
T6 sequence (P15692 other isoform, or with tags, fused parts or gaps): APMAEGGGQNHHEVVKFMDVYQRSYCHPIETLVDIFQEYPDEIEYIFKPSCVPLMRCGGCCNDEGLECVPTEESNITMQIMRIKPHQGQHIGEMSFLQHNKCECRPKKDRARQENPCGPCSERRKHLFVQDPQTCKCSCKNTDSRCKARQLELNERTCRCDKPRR

Binder	binding result (recombinant mouse DLL4)	binding result (human Jagged-1)	EC50 (recombinant human DLL4 [1])	IC50 (recombinant human DLL4 [2])	% inh (recombinant human DLL4 [3])	binding result (human DLL1)	IC50 [4]	% inh [5]	IC50 [5]	% inh [6]	IC50 [6]	% inh [7]	IC50 [7]	% inh [8]	IC50 [8]	IC50 (recombinant human DLL4 [9])
DLLBII07B05 (VHH, also called DLLBII7B05) VHH: EVQLVESGGGLVQAGGSLRLSCAASGFALDYYAVGWFRQAPGKEREGVSCISSRGGSTFYADSVKGRFTTSRNNAKNTVYLQMNSLKPEDTAVYYCAAHPLQNCCGGSAYASPEAVYEYWGQGTQVTVSS	no binding (tested: 2.5e-7 M)	no binding (tested: 2.5e-7 M)	7.2 nM	1.1 nM	84%	no binding (tested: 2.5e-7 M)	–	–	–	–	–	–	–	–	–	–
A3 (bispecific antibody, PEGylated at the Cys at position 15 of the 35 Gly-Ser linker, VEGFBII038 - 35GS(Cys15) - VEGFBII032 - 35GS - DLLBII018) VQLVESGGGLVQPGGSLRLSCAASGRTFSSYSMGWFRQAPGKEREFVVAISKGGYKYDAVSLEGRFTISRDNAKNTVYLQINSLRPEDTAVYYCASSRAYGSSRLRLADTYEYWGQGTLVTVSSGGGGSGGGGSGGGGCGGGGSGGGGSGGGGSGGGGSEVQLVESGGGLVQPGGSLRLSCAASGIRFISMAWYRQAPGKQRELVARISSGGTTAYADSVKGRFTISRDNSKNTVYLQMNSLRAEDTAVYYCNTFSSRPNPWGQGTLVTVSSGGGGSGGGGSGGGGSGGGGSGGGGSGGGGSGGGGSEVQLVESGGGLVQPGGSLRLSCAASGRTFSSYAMAWYRQAPGKEREYVAAIRWSGGTAYYADSVKGRFTISRDNAKNTVYLQMNSLRPEDTAVYYCANRAPDTRLAPYEYDHWGQGTLVTVSS	–	–	–	–	–	–	–	100%	0.01 nM	97%	16.1 nM	97%	0.02 nM	95%	7.9 nM	–
DLLBII6B11 (VHH, also called DLLBII06B1) VHH: EVQLVESEGGLVQAGGSLRLSCAASGSTFSSYAMGWYRQAPGKQRELVAVISNGGITNYPNSVKGRFTISRDNAKNTVYLQMNSLKPEDTAVYYCFYSGSYYYPTDVHEYDYWGQGTQVTVSS	no binding (tested: 2.5e-7 M)	no binding (tested: 2.5e-7 M)	1.4 nM	0.3 nM	98%	no binding (tested: 2.5e-7 M)	8.9 nM	–	–	–	–	–	–	–	–	1.5 nM

Continued by falling EC50 (recombinant human DLL4 [1]), values first:

binding result (recombinant mouse DLL4)	binding result (human Jagged-1)	EC50 (recombinant human DLL4 [1])	IC50 (recombinant human DLL4 [2])	% inh (recombinant human DLL4 [3])	binding result (human DLL1)	IC50 [4]	% inh [5]	IC50 [5]	% inh [6]	IC50 [6]	% inh [7]	IC50 [7]	% inh [8]	IC50 [8]	IC50 (recombinant human DLL4 [9])	Binder
no binding (tested: 2.5e-7 M)	no binding (tested: 2.5e-7 M)	1.8 nM	0.7 nM	98%	no binding (tested: 2.5e-7 M)	–	–	–	–	–	–	–	–	–	–	DLLBII05B11 (VHH, also called DLLBII5B11) VHH: EVQLVESGGGLVQPGGSLRLSCAISGFTLDLHVIGWLRQAPGKEREWVSCISSSDGSTYYADSVKGRFTISRDNAKNTVYLQMNSLKPEDTAVYYCAAPWDSWYCGIGNDYDYWGQGTQVTVSS
no binding (tested: 2.5e-7 M)	no binding (tested: 2.5e-7 M)	1.4 nM	0.4 nM	–	no binding (tested: 2.5e-7 M)	–	–	–	–	–	–	–	–	–	–	DLLBII07A02 (VHH) VHH: EVQLVESGGGLVQAGGSLRLSCAASGSTFNSYAMGWYRQAPGKQREWVAAFSTGGSTNYADSVKGRFTISRDNAKNTVYLQMNSLKPEDTAVYYCFYSGSYYYPTDVFEYDYWGQGTQVTVSS
no binding (tested: 2.5e-7 M)	no binding (tested: 2.5e-7 M)	0.9 nM	0.4 nM	96%	no binding (tested: 2.5e-7 M)	5.5 nM	–	–	–	–	–	–	–	–	–	DLLBII08A09 (VHH, also called DLLBII8A09) VHH: EVQLVESGGGLVQPGGSLRLSCAASGFTLDYYNIGWFRQAPGKEREWVSCINSSDGSTYYADSVKGRFTISRDNAKNTVYLQMNSLKPEDTAVYYCAAPFAYYSNLCGVNGYDYWGQGTQVTVSS

Source: patent US20140120095A1 (Boehringer Ingelheim, published 2014)
